{
  "source": "patent US20230091315A1",
  "about": "(CISBIO BIOASSAYS, published 2023)",
  "binders": {"B1": {"name": "antibody DSV36S (antibody, V domains shown)", "VH": "EVQLQQSGAELVRPGALVKLSCKASGFNIKDYYMHWVKQRPEQGLEWIGWIDPENGNTIYDPKFQGKASITADTSSNTAYLQLSSLTSEDTAVYYCTRGGGYYSDWYFDVWGAGTTVTVSS", "VL": "QIVLTQSPAIMSASPGEKVTMTCSASSSVSYMHWYQQKSGTSPKRWIYDTSKLASGVPARFSGSGSGTSYSLTISSMEAEDAATYYCQQWSSNPPITFGAGTKLELK", "notes": "Used unlabeled or labeled with d2 (acceptor) or Lumi4Tb (donor); also called DSV36S-d2; DSV36S-Lumi4Tb"}},
  "key": {"[1]": {"biological_target": "T1, human Gαi3 fused in its N-terminal part with the tags Twin-Strep-tag and FLAG, overexpressed in HEK293 cells (human, UniProt P08754 1-354)", "T1 construct": "not shown: N-terminal Twin-Strep-tag and FLAG tags", "T1 sequence (P08754 whole entry, the tested form may be a part)": "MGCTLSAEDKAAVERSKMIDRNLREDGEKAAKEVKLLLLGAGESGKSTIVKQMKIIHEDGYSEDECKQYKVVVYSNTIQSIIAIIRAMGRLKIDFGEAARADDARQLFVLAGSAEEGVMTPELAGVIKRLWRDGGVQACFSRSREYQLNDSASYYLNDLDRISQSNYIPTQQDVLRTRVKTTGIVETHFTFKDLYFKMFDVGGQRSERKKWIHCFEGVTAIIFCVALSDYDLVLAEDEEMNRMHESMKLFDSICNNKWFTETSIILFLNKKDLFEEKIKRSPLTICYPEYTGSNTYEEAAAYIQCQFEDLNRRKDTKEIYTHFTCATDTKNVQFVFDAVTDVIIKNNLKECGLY", "assay": "HTRF on HEK293 cells overexpressing the TST-Flag-tagged Gα: antibody-d2 (10 nM) + anti-Twin-Strep-tag-Lumi4 Tb (0.5 nM), in buffer, GDP 10 µM or GTPγS 10 µM"}, "[2]": {"biological_target": "T2, human Gαi2 fused in its N-terminal part with the tags Twin-Strep-tag and FLAG, overexpressed in HEK293 cells (human, UniProt P04899 1-355)", "T2 construct": "not shown: N-terminal Twin-Strep-tag and FLAG tags", "T2 sequence (P04899 whole entry, the tested form may be a part)": "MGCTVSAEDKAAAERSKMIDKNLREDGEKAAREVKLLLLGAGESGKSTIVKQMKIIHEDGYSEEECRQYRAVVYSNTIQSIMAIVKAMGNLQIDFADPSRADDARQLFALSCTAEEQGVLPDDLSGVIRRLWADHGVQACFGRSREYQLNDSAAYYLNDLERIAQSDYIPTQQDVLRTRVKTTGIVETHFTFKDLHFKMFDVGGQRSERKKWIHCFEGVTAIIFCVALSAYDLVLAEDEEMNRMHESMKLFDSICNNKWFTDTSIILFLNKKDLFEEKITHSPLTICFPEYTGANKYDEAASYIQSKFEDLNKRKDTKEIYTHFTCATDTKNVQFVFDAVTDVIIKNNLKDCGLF", "assay": "HTRF on HEK293 cells overexpressing the TST-Flag-tagged Gα: antibody-d2 (10 nM) + anti-Twin-Strep-tag-Lumi4 Tb (0.5 nM), in buffer, GDP 10 µM or GTPγS 10 µM"}, "[3]": {"biological_target": "T3, human Gαz fused in its N-terminal part with the tags Twin-Strep-tag and FLAG, overexpressed in HEK293 cells (human, UniProt P19086 1-355)", "T3 construct": "not shown: N-terminal Twin-Strep-tag and FLAG tags", "T3 sequence (P19086 whole entry, the tested form may be a part)": "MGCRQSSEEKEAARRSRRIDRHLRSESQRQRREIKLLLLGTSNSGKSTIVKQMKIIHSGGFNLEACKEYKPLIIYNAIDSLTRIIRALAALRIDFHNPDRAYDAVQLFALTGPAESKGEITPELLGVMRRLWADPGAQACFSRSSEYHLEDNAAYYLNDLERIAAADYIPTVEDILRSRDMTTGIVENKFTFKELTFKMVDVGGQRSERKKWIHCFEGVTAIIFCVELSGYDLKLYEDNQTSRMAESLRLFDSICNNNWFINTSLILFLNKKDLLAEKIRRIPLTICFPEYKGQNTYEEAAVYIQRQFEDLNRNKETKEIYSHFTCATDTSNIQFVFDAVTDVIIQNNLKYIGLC", "assay": "HTRF on HEK293 cells overexpressing the TST-Flag-tagged Gα: antibody-d2 (10 nM) + anti-Twin-Strep-tag-Lumi4 Tb (0.5 nM), in buffer, GDP 10 µM or GTPγS 10 µM"}, "[4]": {"biological_target": "T4, human Gαq fused in its N-terminal part with the tags Twin-Strep-tag and FLAG, overexpressed in HEK293 cells (human, UniProt P50148 1-359)", "T4 construct": "not shown: N-terminal Twin-Strep-tag and FLAG tags", "T4 sequence (looked up)": "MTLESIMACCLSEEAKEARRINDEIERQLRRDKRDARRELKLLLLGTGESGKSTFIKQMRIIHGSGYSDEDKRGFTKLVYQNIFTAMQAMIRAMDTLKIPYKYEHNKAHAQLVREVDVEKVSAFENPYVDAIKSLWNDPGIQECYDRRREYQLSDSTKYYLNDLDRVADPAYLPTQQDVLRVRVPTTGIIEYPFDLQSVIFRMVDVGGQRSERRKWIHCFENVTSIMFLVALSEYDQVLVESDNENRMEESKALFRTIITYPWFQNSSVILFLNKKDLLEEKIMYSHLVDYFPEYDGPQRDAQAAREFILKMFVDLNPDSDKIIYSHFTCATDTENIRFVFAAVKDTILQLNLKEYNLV", "assay": "HTRF on HEK293 cells overexpressing the TST-Flag-tagged Gα: antibody-d2 (10 nM) + anti-Twin-Strep-tag-Lumi4 Tb, in buffer, GDP 10 µM or GTPγS 10 µM"}, "[5]": {"biological_target": "T5, human Gα13 fused in its N-terminal part with the tags Twin-Strep-tag and FLAG, overexpressed in HEK293 cells (human, UniProt Q14344 1-377)", "T5 construct": "not shown: N-terminal Twin-Strep-tag and FLAG tags", "T5 sequence (looked up)": "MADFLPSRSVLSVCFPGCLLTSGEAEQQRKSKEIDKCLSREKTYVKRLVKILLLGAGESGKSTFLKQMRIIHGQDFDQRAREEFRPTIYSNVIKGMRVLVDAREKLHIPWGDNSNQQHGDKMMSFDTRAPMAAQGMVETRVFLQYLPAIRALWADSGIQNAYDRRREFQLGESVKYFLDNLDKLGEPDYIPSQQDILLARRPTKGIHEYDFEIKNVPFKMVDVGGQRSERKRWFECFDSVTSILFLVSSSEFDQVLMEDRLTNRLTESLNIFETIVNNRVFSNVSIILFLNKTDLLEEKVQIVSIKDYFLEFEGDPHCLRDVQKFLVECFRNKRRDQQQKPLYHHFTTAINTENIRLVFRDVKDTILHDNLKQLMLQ", "assay": "HTRF on HEK293 cells overexpressing the TST-Flag-tagged Gα: antibody-d2 (10 nM) + anti-Twin-Strep-tag-Lumi4 Tb, in buffer, GDP 10 µM or GTPγS 10 µM"}, "[6]": {"biological_target": "T6, human Gα12 fused in its N-terminal part with the tags Twin-Strep-tag and FLAG, overexpressed in HEK293 cells (human, UniProt Q03113 1-381)", "T6 construct": "not shown: N-terminal Twin-Strep-tag and FLAG tags", "T6 sequence (looked up)": "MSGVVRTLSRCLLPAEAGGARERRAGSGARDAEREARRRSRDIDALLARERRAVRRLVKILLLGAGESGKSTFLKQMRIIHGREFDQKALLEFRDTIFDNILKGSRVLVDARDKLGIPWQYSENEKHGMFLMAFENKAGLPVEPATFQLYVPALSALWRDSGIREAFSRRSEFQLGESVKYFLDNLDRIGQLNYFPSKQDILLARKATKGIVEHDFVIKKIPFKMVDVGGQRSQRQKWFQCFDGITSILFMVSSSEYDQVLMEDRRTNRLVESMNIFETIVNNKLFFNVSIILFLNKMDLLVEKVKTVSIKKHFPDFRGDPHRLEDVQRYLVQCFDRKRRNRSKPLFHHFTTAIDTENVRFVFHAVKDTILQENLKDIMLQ", "assay": "HTRF on HEK293 cells overexpressing the TST-Flag-tagged Gα: antibody-d2 (10 nM) + anti-Twin-Strep-tag-Lumi4 Tb, in buffer, GDP 10 µM or GTPγS 10 µM"}},
  "data": [
    {"binder": "B1", "values": [
      {"measurement": "binding result", "setting": "[1]", "result": "binds"},
      {"measurement": "binding result", "setting": "[2]", "result": "binds"},
      {"measurement": "binding result", "setting": "[3]", "result": "binds"},
      {"measurement": "binding result", "setting": "[4]", "result": "no binding (tested: 10 nM)"},
      {"measurement": "binding result", "setting": "[5]", "result": "no binding (tested: 10 nM)"},
      {"measurement": "binding result", "setting": "[6]", "result": "no binding (tested: 10 nM)"}
    ]}
  ]
}
